Assays:
[1] = biological target: T1, sVEGF-RI, natural soluble form of the FLT VEGF receptor, expressed by baculovirus in Sf9 insect cells (human, UniProt P17948 27-656); assay: 96 well plate competition, immobilized sFLT, tracer [125I]PlGF, competitor unlabeled VEGF
T1 construct: also called sFLT; sFlt
Description: (§1) Briefly, sVEGF-RI, 50 to […] partially purified by Mono Q chromatography (Pharmacia), was diluted to 10 ml in 25 mM TRIS, pH 7.4, 100 mM NaCl, 20 mM NH₄HCO_{3.} Aliquots ([…]) were absorbed to the surface of a 96 well plate for 18 hours at 4° C., the plates were then washed twice with blocking buffer (DME, 25 mM HEPES, pH 7.5, 0.5% gelatin) and the nonspecific sites were blocked in the same buffer for 6 hours at 4° C. The plate was then washed twice in binding buffer. […] The wells were washed three times with […] of binding buffer, the bound protein was solubilized with […] of 1% SDS, 0.5% BSA and counted in a g counter. The results, shown in FIG. 7, were analyzed by the method of Scatchard [Scatchard, G., (1949) Ann. N.Y. Acad. Sci., 51, pp. 660-672].

[2] = biological target: T1, sVEGF-RI, natural soluble form of the …; assay: 96 well plate assay, sVEGF-RI absorbed to the plate, various amounts of [125I]VEGF, Scatchard analysis
Description: as §1

[3] = biological target: T1, sVEGF-RI, natural soluble form of the …; assay: 96 well plate competition, immobilized sFLT, tracer [125I]PlGF, competitor unlabeled PlGF
Description: as §1

[4] = biological target: T1, sVEGF-RI, natural soluble form of the …; assay: 96 well plate competition, immobilized sFLT; reference is PlGF displacing [125I]PlGF
Description: as §1

[5] = biological target: T1, sVEGF-RI, natural soluble form of the …; assay: 96 well plate competition, immobilized sFLT, tracer [125I]VEGF, competitor unlabeled PlGF
Description: as §1

[6] = biological target: T2, Ex-KDR, purified extracellular domain of the KDR VEGF receptor (UniProt P35968 20-764, limits assumed); assay: covalent crosslinking (BS3) of purified Ex-KDR with [125I]PlGF, SDS/PAGE
T2 construct: extracellular domain; It may be the same construct; also called extracellular region of KDR
Description: The reactions were then crosslinked with 1 mM BS³ at 25° C. for 15 min followed by the addition of boiling Laemmli sample buffer (10). The crosslinked products were analyzed by SDS/7.5% PAGE and the complexes were visualized using a Phosphohnager (Molecular Dynamics, Sunnyvale, Calif.).
The reactions were then crosslinked with 1 mM BS³ at 25° C. for 15 min followed by the addition of boiling Laemmli sample buffer. The crosslinked products were analyzed by SDS/7.5% PAGE and the complexes were visualized using a Phosphohnager (Molecular Dynamics, Sunnyvale, Calif.).

T1 sequence (P17948 other isoform, or with tags, fused parts or gaps): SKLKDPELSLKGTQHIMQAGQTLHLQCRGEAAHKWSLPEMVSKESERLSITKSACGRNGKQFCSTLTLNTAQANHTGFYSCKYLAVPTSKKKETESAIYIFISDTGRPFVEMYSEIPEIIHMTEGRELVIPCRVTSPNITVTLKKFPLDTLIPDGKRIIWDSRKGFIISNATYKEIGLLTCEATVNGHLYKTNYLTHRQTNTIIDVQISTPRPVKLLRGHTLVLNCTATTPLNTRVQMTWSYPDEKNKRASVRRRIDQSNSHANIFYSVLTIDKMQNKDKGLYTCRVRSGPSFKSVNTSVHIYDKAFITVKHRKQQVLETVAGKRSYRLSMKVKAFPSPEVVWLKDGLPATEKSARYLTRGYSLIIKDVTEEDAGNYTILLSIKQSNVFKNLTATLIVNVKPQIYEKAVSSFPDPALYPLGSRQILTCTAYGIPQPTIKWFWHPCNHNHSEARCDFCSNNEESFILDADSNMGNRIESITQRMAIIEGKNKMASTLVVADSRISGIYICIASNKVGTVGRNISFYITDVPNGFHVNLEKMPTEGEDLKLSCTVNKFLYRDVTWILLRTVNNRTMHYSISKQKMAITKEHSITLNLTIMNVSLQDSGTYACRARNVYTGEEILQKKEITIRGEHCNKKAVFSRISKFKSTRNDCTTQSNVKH
T2 sequence (P35968 20-764 limits assumed): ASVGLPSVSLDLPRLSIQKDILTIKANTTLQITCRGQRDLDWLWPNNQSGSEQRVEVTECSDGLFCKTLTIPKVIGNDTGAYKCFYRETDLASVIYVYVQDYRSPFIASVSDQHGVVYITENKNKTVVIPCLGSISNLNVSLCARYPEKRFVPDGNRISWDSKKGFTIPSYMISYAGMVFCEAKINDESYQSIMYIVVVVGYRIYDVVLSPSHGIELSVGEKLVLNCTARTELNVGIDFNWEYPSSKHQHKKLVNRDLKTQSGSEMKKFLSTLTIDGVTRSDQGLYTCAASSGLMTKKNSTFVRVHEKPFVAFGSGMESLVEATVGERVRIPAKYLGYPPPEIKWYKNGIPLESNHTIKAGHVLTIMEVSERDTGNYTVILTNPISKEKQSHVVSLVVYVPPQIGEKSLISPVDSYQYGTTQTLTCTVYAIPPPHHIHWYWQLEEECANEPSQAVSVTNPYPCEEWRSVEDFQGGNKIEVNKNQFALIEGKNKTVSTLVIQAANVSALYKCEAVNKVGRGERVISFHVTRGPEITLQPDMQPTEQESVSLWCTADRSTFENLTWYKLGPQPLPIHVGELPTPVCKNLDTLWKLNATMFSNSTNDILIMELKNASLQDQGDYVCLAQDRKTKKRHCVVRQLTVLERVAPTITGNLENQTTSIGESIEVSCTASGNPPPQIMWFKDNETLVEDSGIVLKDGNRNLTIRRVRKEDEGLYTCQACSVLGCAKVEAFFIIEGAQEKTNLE

B1: human recombinant vascular endothelial cell growth factor (VEGF) (ligand, UniProt P15692-4 27-191, looked up)
chain: APMAEGGGQNHHEVVKFMDVYQRSYCHPIETLVDIFQEYPDEIEYIFKPSCVPLMRCGGCCNDEGLECVPTEESNITMQIMRIKPHQGQHIGEMSFLQHNKCECRPKKDRARQENPCGPCSERRKHLFVQDPQTCKCSCKNTDSRCKARQLELNERTCRCDKPRR
modifications: 125I label (chloramine T method) in the tracer form
notes: also called unlabeled VEGF
B1 showed an IC50 [1] of 0.01 nM and a Kd [2] of about 0.02 nM.

B2: recombinant human PlGF (ligand, UniProt P49763-2 19-149, looked up)
chain: LPAVPPQQWALSAGNGSSEVEVVPFQEVWGRSYCRALERLVDVVSEYPSEVEHMFSPSCVSLLRCTGCCGDENLHCVPVETANVTMQLLKIRSGDRPSYVELTFSQHVRCECRPLREKMKPERCGDAVPRR
modifications: 125I label (chloramine T method) in the tracer form
notes: also called PIGF
For B2, the IC50 [3] was about 0.11 nM, the “fold higher concentration to displace 50% of [125I]VEGF than of [125I]PlGF” value [4] was about 5 fold and the IC50 [5] was about 0.55 nM. B2: no binding [6].
